Assay in all cases: MST
Data set [1] has as its target T1, Mlh1;Pms1 (Saccharomyces cerevisiae (baker's …, UniProt P38920;P14242 1-769;1-873, |)).
Data set [2] concerns the target T2, Mlh1-FKBP464 (Complex #2 subunit);Pms1-FRB627 (Complex #2 subunit) (Saccharomyces cerevisiae (baker's …, UniProt P38920;P14242 1-464+=GS+P62942:2-108+=GS+465-769;1-627+=[…]+628-873, internal_change|internal_change).
The target in data set [3] is T3, Mlh1-FRB355 (Complex #5 subunit);Pms1-FKBP460 (Complex #5 subunit) (Saccharomyces cerevisiae (baker's …, UniProt P38920;P14242 1-355+=[…]+356-769;1-460+=GS+P62942:2-108+=GS+461-873, internal_change|internal_change).
For data set [4], the target named is T4, Mlh1-FRB355,FKBP464 (Complex #1 subunit);Pms1 (Saccharomyces cerevisiae (baker's …, UniProt P38920;P14242 1-355+=[…]+356-464+=GS+P62942:2-108+=GS+465-769;1-873, internal_change|).
For data set [5], the target named is T1, Mlh1;Pms1. The source holds these as a separate data set.
The target in data set [6] is T2, Mlh1-FKBP464 (Complex #2 …). This is another data set of the same source.
Data set [7] deals with T1, Mlh1;Pms1. This is another data set of the same source.
The target in data set [8] is T2, Mlh1-FKBP464 (Complex #2 …). This is another data set of the same source.
Data set [9] has as its target T3, Mlh1-FRB355 (Complex #5 …). The source holds these as a separate data set.
Data set [10] concerns the target T4, Mlh1-FRB355,FKBP464 (Complex #1 …). The source holds these as a separate data set.
Data set [11] deals with T1, Mlh1;Pms1. The source holds these as a separate data set.
The target in data set [12] is T2, Mlh1-FKBP464 (Complex #2 …). The source holds these as a separate data set.
Data set [13] concerns the target T4, Mlh1-FRB355,FKBP464 (Complex #1 …). This is another data set of the same source.

Read-outs that look alike come from different tables or passages of the source.

B1: homoduplex AO4549/AO4548 (48-mer in Methods, called 49 bp in Results) (dsDNA)
DNA 1: CTGGACGGGTTAAGACCGAACGTGGCTCCAGAAACGGGTGCAACTGGG
DNA 2: CCCAGTTGCACCCGTTTCTGGAGCCACGTTCGGTCTTAACCCGTCCAG
As to B1, the equilibrium dissociation constant (Kd) in data set [1] amounted to 141 nM; in data set [2], 207 nM; in data set [3], 287 nM; in data set [4], 98.4 nM; in data set [5], 628 nM; in data set [6], 391 nM. Besides, the Kd is 675 nM in data set [7]; 431 nM in data set [8]; 556 nM in data set [9]; 421 nM in data set [10]; 173 nM in [11]; 211 nM in [12]. The same molecule returned a dissociation constant Kd in [13] of 198 nM.

As a reminder, the Kd is a measure of binding affinity in units of concentration. Read a low Kd as a tighter complex.
